{
  "source": "patent US6989364B1",
  "about": "“Methods for treating cardiac hypertrophy by administering IFN-γ” (Genentech, Inc., priority 1998, dated 2006)",
  "key": {"[1]": {"tested_on": "adult rat cardiac myocytes", "assay": "Inhibition of PGF2α-induced spreading response of adult myocytes", "format": "cell-based", "description": "Myocytes were pre-incubated with saline vehicle or IFN-γ (500 U/ml) on day of isolation. A second addition of vehicle or IFN-γ was performed 24h after isolation, along with the addition of either vehicle or PGF2α (10^−7 M). After an additional 72 hr incubation, cells were fixed in glutaraldehyde, stained with eosin Y and viewed by fluorescence microscopy. A, B, C Cardiac myocytes after 4 days in culture: control, PGF2α, and PGF2α+IFN-γ, respectively. D, E, F Histographs showing maximum breadth of rod shaped cardiac myocytes versus percent frequency of breadth occurrence. The maximum breadth of rod-shaped cells was determined by fluorescence microscopy and imaging software. At least 200 rod shaped cells from a single experiment were examined per group.\nMyocytes were pre-incubated with saline vehicle or IFN-γ on day of isolation. A second amount of IFN-γ was added 24 hr after isolation, along with the addition of either vehicle or PGF2α (10^−7 M). After an additional 72 hr incubation, cells were fixed in glutaraldehyde, stained with eosin Y and viewed under fluorescence. Quantitation of myocyte morphology: A control, B PGF2α, C PGF2α+IFN-γ (25 U/ml), D PGF2α+IFN-γ (100 U/ml), E PGF2α+IFN-γ (500 U/ml). Histographs showing maximum breadth of rod shaped cardiac myocytes versus percent frequency of breadth occurrence. The maximum breadth of rod-shaped cells was determined by fluorescence microscopy and imaging software. At least 200 rod shaped cells from a single experiment were examined per group.\nIn this assay, ventricular myocytes are isolated from a single (male Sprague-Dawley) rat, essentially following a modification of the procedure described in detail by Piper et al., “Adult ventricular rat heart muscle cells.” In: Cell Culture Techniques in Heart and Vessel Research, H. M. Piper, ed., Berlin: Spinger-Verlag, 1990, pp. 36–60. This procedure permits the isolation of adult ventricular myocytes and the long-term culture of these cells in the rod-shaped phenotype. […] Piper et al., supra; Lai et al., Am J. Physiol. 1996; 271 (Heart Circ. Phvsiol. 40):H2197–H2208. The inhibition of myocyte spreading induced by PGF2α, or PGF2α analogs, (e.g. fluprostenol) and phenylephrine by various potential inhibitors of cardiac hypertrophy is then tested. A detailed protocol is described in the examples that follow.\nAdult myocyte cultures The procedure used for the isolation of ventricular myocytes from adult rats was a modification of a procedure described by Piper et al., supra, and is detailed in Lai et al., supra. For each myocyte preparation, one male Sprague-Dawley rat weighing about 250 g was anesthetized with pentobarbital sodium, and the heart was removed. Extraneous tissue was trimmed from the heart, and it was mounted onto a Langendorff system that was temperature controlled at 37° C. The heart was perfused with about 40 ml of Krebs buffer (110 mM NaCl, 2.6 mM KCl, 1.2 mM KH2PO4, 1.2 mM MgSO4.7H2O, 25 mM NaHCO3 and 11 mM glucose). A solution containing 30 mg of collagenase and 12.5 μl of 100 mM CaCl2 in 50 ml of Krebs buffer was then recirculated through the heart for 30 minutes. The heart was removed from the Langendorff apparatus, and the atria and connective tissues were removed. The ventricles were cut into 2 mm cubes with dissecting scissors, and further digested in a fresh collagenase solution (30 mg collagenase and 400 mg BSA dissolved in Krebs buffer with 12.5 μl of 100 mM CaCl2) for five minutes at 37° C. During the digestion, the tissue suspension was gently band shaken one time per minute. After the digestion, the supernatant was removed and saved, and the remaining tissue was further digested in fresh collagenase solution for an additional five minutes."}, "[2]": {"tested_on": "rats with pressure overload", "assay": "Pressure overload (abdominal aortic banding) cardiac hypertrophy: body and organ weights", "format": "in vivo, rat", "description": "For in vivo testing it is common to induce pressure-overload cardiac hypertrophy by constriction of the abdominal aorta of test animals. In a typical protocol rats (e.g. male Wistar or Sprague-Dawley) are treated under anesthesia, and the abdominal aorta of each rat is narrowed down just below the diaphragm. Beznak M., Can. J. Biochem. Physiol. 33, 985–94 (1955). The aorta is exposed through a surgical incision, and a blunted needle is placed next to the vessel. The aorta is constricted with a ligature of wool thread around the needle, which is immediately removed and which reduces the lumen of the aorta to the diameter of the needle. This approach is described, for example, in Rossi et al., Am. Heart J. 124, 700–709 (1992) and O'Rourke and Reibel, P.S.E.M.B. 200, 95–100 (1992). A detailed description of the protocol used by the present inventors is disclosed in the examples hereinbelow.\nAnimal model of pressure overload The induction of pressure overload by partial ligation of the abdominal aorta in rats was as described previously. Kimura et al., Am. J. Physiol. 1989:256 (Heart Circ. Physiol. 25):H1006–H1-11; Batra et al., J. Cardiovasc. Pharmacol. 17(suppl. 2), S151–S153 (1991). In brief, rats were anesthesized with ketamine/xylazine as described above. A 3 cm midline incision was made in the abdominal wall. The abdominal aorta between the diaphragm and the renal artery was exposed and looped with 5–0 silk suture. The suture was tightened around a gauge 23 needle, and then the needle was withdrawn. Sham animals received the surgery without tightening the suture.\nExperimental protocol in rats with pressure overload The rats with aortic banding randomly received subcutaneous injection of IFN-γ at 0.08 mg/k twice a day for one day before surgery and for 14 days after surgery. Sham animals were not treated. Thirteen days after treatment, a catheter was implanted into the right carotid artery under anesthesia as indicated above. One day after implantation, arterial pressure and HR were measured in conscious rats. The heart and other organs including the liver, kidney, and spleen were removed, weighed, and fixed in 10% buffered formalin for pathological studies. The left ventricle was quickly dissected and frozen with liquid nitrogen in some animals and stored at −80° C. for assessment of gene expression.\nStatistical analyisis Results are expressed as mean±SEM. One way analysis of variance (ANOVA) was performed to assess differences in parameters between groups. Significant differences were then subjected to post hoc analysis using Newman-Keuls method; P<0.05 was considered significant."}, "[3]": {"settings": "pressure overload, IFN-γ 0.08 mg/kg s.c. twice a day, 1 day before and 14 days after surgery, mean ± SEM"}},
  "data": [
    {"substance": "IFN-γ: recombinant mouse IFN-γ (Genentech, Inc., South San Francisco, Calif., or Genzyme, Cambridge, Mass.)", "values": [
      {"measurement": "Dose dependence of the inhibitory effect on PGF2α-induced myocyte spreading", "setting": "[1]; IFN-γ 25, 100, 500 U/ml, PGF2α 10^−7 M", "value": "dose dependent"},
      {"measurement": "Inhibition of PGF2α-induced myocyte spreading (maximum cell breadth of rod shaped cells)", "setting": "[1]; IFN-γ 500 U/ml, PGF2α 10^−7 M, 72 hr, P<0.001 vs PGF2α", "value": "significantly inhibited their response to PGF2α"},
      {"measurement": "Effect of the substance alone on morphology of the cells", "setting": "[1]; IFN-γ alone, 500 U/ml, no PGF2α", "value": "had no observable effect on the morphology of the cells"},
      {"measurement": "Effect on cardiac hypertrophy induced by pressure overload (heart, atrial, ventricular, left ventricular weights and ratios to BW)", "setting": "[2]; aortic banding, IFN-γ vs vehicle, Table 2, FIGS. 7 and 8", "value": "significantly attenuated cardiac hypertrophy"},
      {"measurement": "BWO, basal levels of body weight", "setting": "[2]; pressure overload rats, before treatment, mean ± SEM", "value": "279.0 ± 1.3", "unit": "g"},
      {"measurement": "AW, atrial weight", "setting": "[2]; [3]", "value": ".046 ± .003 g"},
      {"measurement": "AW/BW, atrial weight to body weight", "setting": "[2]; [3]", "value": ".129 ± .007 g/kg"},
      {"measurement": "BW, body weight post treatment", "setting": "[2]; [3]", "value": "355.5 ± 5.2", "unit": "g"},
      {"measurement": "KW, kidney weight", "setting": "[2]; [3]", "value": "1.349 ± .071 g"},
      {"measurement": "KWBW", "setting": "[2]; [3]", "value": "3.776 ± .071 g/kg"},
      {"measurement": "LW, liver weight", "setting": "[2]; [3]", "value": "13.96 ± .47 g"},
      {"measurement": "LW/BW, liver weight to body weight", "setting": "[2]; [3]", "value": "38.94 ± .92 g/kg"},
      {"measurement": "SW, spleen weight", "setting": "[2]; [3]", "value": "1.170 ± .053 g"},
      {"measurement": "SW/BW, spleen weight to body weight", "setting": "[2]; [3]", "value": "3.261 ± .121 g/kg"},
      {"measurement": "ΔBW, BW-BWO", "setting": "[2]; [3]", "value": "76.5 ± 4.7", "unit": "g"}
    ]}
  ]
}
